The values below come from article PMC3075949.

For experiment [1], the target named is Rh gH/gL-YFPC (rhesus lymphocryptovirus (Rh-LCV)). The experiment in a line: split reporter.
The target in experiment [2] is EBV gH/gL-YFPC (Epstein-Barr virus (EBV)) (UniProt P03231). The experiment can be described thus: split reporter.

Turning to “EBV gB-YFPN (from UniProt P03188 22-857) (natural protein)”, the % YFP cells of cells stained for gB and gH/gL in experiment [1] was 68%.
Same read-out and setting: to “EBV/Rh (456-807) gB-YFPN (from UniProt P03188 22-450; P03188 801-857)” belongs 79%; to “EBV/Rh (628-807) gB-YFPN (from UniProt P03188 22-622; P03188 801-857)”, 59%.
For the substance “EBV/Rh (456-628) gB-YFPN (from UniProt P03188 22-450; P03188 624-857)”, the % YFP cells of cells stained for gB and gH/gL amounted to 93% in experiment [2] and 72% in experiment [1].
